Results reported in patent US20140134183A1 (CELL MEDICA SWITZERLAND, published 2014).

molecular target: T1, recombinant human IL-1 beta (human, UniProt P01584 117-269); assay: ELISA, cleared E. coli lysate on coated rhIL-1 beta
T1 construct: Bought protein; also called rhIL-1 beta; rhIL1-beta
Method: The resulting scFv mutants are expressed in 96-well format in 1 ml cultures in E. coli BL21 (DE3) (Novagen, USA, cat. no. 69450-3). […] Cells were lysed in lysis buffer (1 mM EDTA, 0.1 mg/ml lysozyme, PBS pH 7.2) in a 96-well format by freezing and subsequent thawing. Derived crude extracts were cleared by centrifugation. Supernatants were added to wells of a microtiterplate coated with 50 ng/ml of rhIL-1 beta (Peprotech) per well. After washing, bound scFvs are detected by ProteinL-HRP and binding to rhIL-1 beta quantified by BM Blue POD Substrate (Roche Applied Science).

Binder	binding result
DLX2689 (scFv, tested as cleared E. coli lysate; also called DLX2544_2531) scFv: ADIVMTQSPSTLSASVGDRVTITCQASQSISSYLSWYQQKPGKAPKLLIYKASTLASGVPSRFSGSGSGTDFTLTISSLQPEDFATYYCQNAGGGINIAFGQGTKVEIKRGGGGSGGGGSGGGGSGGGGSEVQLVESGGGNVQPGGSLRLSCTASGFSLSNSAMAWVRQAPGKGLEWVGIIYDSASTYYASWAKGRFTISRDNSKNTVYLQMNSLRAEDTATYYCARERAIFSGDFALWGQGTLVTVSS	binds
DLX2695 (scFv, tested as cleared E. coli lysate; also called DLX2547_2585) scFv: ADIVMTQSPSTLSASVGDRVTITCQASQSISSYLSWYQQKPGKAPKLLIYRASTLASGVPSRFSGSGSGAEFTLTISSLQPDDFATYYCQNTGGGINIAFGQGTKLEIKRGGGGSGGGGSGGGGSGGGGSEVQLVESGGGLVQPGGSLRLSCTVSGFSLSSYAMSWVRQAPGKGLEWVGIIYDSASTYYASWAKGRFTISKDTSKNTVYLQMNSLRAEDTAVYYCARERAIFSGDFDYWGQGTLVTVSS	binds
DLX2694 (scFv, tested as cleared E. coli lysate; also called DLX2547_2548) scFv: ADIVMTQSPSTLSASVGDRVTITCQASQSISSYLSWYQQKPGKAPKLLIYRASTLASGVPSRFSGSGSGAEFTLTISSLQPDDFATYYCQNTGGGINIAFGQGTKLEIKRGGGGSGGGGSGGGGSGGGGSEVQLVESGGGLVQPGGSLRLSCTVSGFSLSSYAMSWVRQAPGKGLEWIGIIYDSASTYYASWAKGRFTISKDTSKNTLYLQMNSLRAEDTAVYFCARERQIFSGDMDGWGQGTTVTVSS	binds
DLX2691 (scFv, tested as cleared E. coli lysate; also called DLX2544_2585) scFv: ADIVMTQSPSTLSASVGDRVTITCQASQSISSYLSWYQQKPGKAPKLLIYKASTLASGVPSRFSGSGSGTDFTLTISSLQPEDFATYYCQNAGGGINIAFGQGTKVEIKRGGGGSGGGGSGGGGSGGGGSEVQLVESGGGLVQPGGSLRLSCTVSGFSLSSYAMSWVRQAPGKGLEWVGIIYDSASTYYASWAKGRFTISKDTSKNTVYLQMNSLRAEDTAVYYCARERAIFSGDFDYWGQGTLVTVSS	binds
DLX2687 (scFv, tested as cleared E. coli lysate; also called DLX2543_2585) scFv: EIVMTQSPSTLSASVGDRVTITCQASQSISSWLSWYQQKPGKAPKLLIYKASTLASGVPSRFSGSGSGTEFTLTISSLQPDDFATYYCQNAGGGVSIAFGQGTKLTVLGGGGGSGGGGSGGGGSGGGGSEVQLVESGGGLVQPGGSLRLSCTVSGFSLSSYAMSWVRQAPGKGLEWVGIIYDSASTYYASWAKGRFTISKDTSKNTVYLQMNSLRAEDTAVYYCARERAIFSGDFDYWGQGTLVTVSS	binds
DLX2677 (scFv, tested as cleared E. coli lysate; also called DLX2528_2531) scFv: EIVMTQSPSTLSASVGDRVTITCQASQSIGNWLAWYQQKPGKAPKLLIYQASNLASGVPSRFSGSGSGTDFTLTISSLQPDDFATYYCQNAGGATTIAFGQGTKLTVLGGGGGSGGGGSGGGGSGGGGSEVQLVESGGGNVQPGGSLRLSCTASGFSLSNSAMAWVRQAPGKGLEWVGIIYDSASTYYASWAKGRFTISRDNSKNTVYLQMNSLRAEDTATYYCARERAIFSGDFALWGQGTLVTVSS	binds

The next lines start with the values.

binding result	Binder
binds	DLX2684 (scFv, tested as cleared E. coli lysate; also called DLX2543_2530) scFv: EIVMTQSPSTLSASVGDRVTITCQASQSISSWLSWYQQKPGKAPKLLIYKASTLASGVPSRFSGSGSGTEFTLTISSLQPDDFATYYCQNAGGGVSIAFGQGTKLTVLGGGGGSGGGGSGGGGSGGGGSEVQLVESGGGNVQPGGSLRLSCTASGFSLSDAAMAWVRQAPGKGLEWVGIIYDSASTFYASWAKGRFTISRDNSKNTLYLQMNSLRAEDTATYYCARERNIFSGDMALWGQGTTVTVSS
binds	DLX2680 (scFv, tested as cleared E. coli lysate; also called DLX2529_2530) scFv: EIVMTQSPSTLSASVGDRVIITCRASQSIGNWLSWYQQKPGKAPKLLIYRASNLASGVPSRFSGSGSGAEFTLTISSLQPEDFATYYCQNTGGGINIAFGQGTKLTVLGGGGGSGGGGSGGGGSGGGGSEVQLVESGGGNVQPGGSLRLSCTASGFSLSDAAMAWVRQAPGKGLEWVGIIYDSASTFYASWAKGRFTISRDNSKNTLYLQMNSLRAEDTATYYCARERNIFSGDMALWGQGTTVTVSS
binds	DLX2685 (scFv, tested as cleared E. coli lysate; also called DLX2543_2531) scFv: EIVMTQSPSTLSASVGDRVTITCQASQSISSWLSWYQQKPGKAPKLLIYKASTLASGVPSRFSGSGSGTEFTLTISSLQPDDFATYYCQNAGGGVSIAFGQGTKLTVLGGGGGSGGGGSGGGGSGGGGSEVQLVESGGGNVQPGGSLRLSCTASGFSLSNSAMAWVRQAPGKGLEWVGIIYDSASTYYASWAKGRFTISRDNSKNTVYLQMNSLRAEDTATYYCARERAIFSGDFALWGQGTLVTVSS
binds	DLX2676 (scFv, tested as cleared E. coli lysate; also called DLX2528_2530) scFv: EIVMTQSPSTLSASVGDRVTITCQASQSIGNWLAWYQQKPGKAPKLLIYQASNLASGVPSRFSGSGSGTDFTLTISSLQPDDFATYYCQNAGGATTIAFGQGTKLTVLGGGGGSGGGGSGGGGSGGGGSEVQLVESGGGNVQPGGSLRLSCTASGFSLSDAAMAWVRQAPGKGLEWVGIIYDSASTFYASWAKGRFTISRDNSKNTLYLQMNSLRAEDTATYYCARERNIFSGDMALWGQGTTVTVSS
binds	DLX2679 (scFv, tested as cleared E. coli lysate; also called DLX2528_2585) scFv: EIVMTQSPSTLSASVGDRVTITCQASQSIGNWLAWYQQKPGKAPKLLIYQASNLASGVPSRFSGSGSGTDFTLTISSLQPDDFATYYCQNAGGATTIAFGQGTKLTVLGGGGGSGGGGSGGGGSGGGGSEVQLVESGGGLVQPGGSLRLSCTVSGFSLSSYAMSWVRQAPGKGLEWVGIIYDSASTYYASWAKGRFTISKDTSKNTVYLQMNSLRAEDTAVYYCARERAIFSGDFDYWGQGTLVTVSS
binds	DLX2682 (scFv, tested as cleared E. coli lysate; also called DLX2529_2548) scFv: EIVMTQSPSTLSASVGDRVIITCRASQSIGNWLSWYQQKPGKAPKLLIYRASNLASGVPSRFSGSGSGAEFTLTISSLQPEDFATYYCQNTGGGINIAFGQGTKLTVLGGGGGSGGGGSGGGGSGGGGSEVQLVESGGGLVQPGGSLRLSCTVSGFSLSSYAMSWVRQAPGKGLEWIGIIYDSASTYYASWAKGRFTISKDTSKNTLYLQMNSLRAEDTAVYFCARERQIFSGDMDGWGQGTTVTVSS
binds	DLX2683 (scFv, tested as cleared E. coli lysate; also called DLX2529_2585) scFv: EIVMTQSPSTLSASVGDRVIITCRASQSIGNWLSWYQQKPGKAPKLLIYRASNLASGVPSRFSGSGSGAEFTLTISSLQPEDFATYYCQNTGGGINIAFGQGTKLTVLGGGGGSGGGGSGGGGSGGGGSEVQLVESGGGLVQPGGSLRLSCTVSGFSLSSYAMSWVRQAPGKGLEWVGIIYDSASTYYASWAKGRFTISKDTSKNTVYLQMNSLRAEDTAVYYCARERAIFSGDFDYWGQGTLVTVSS
binds	DLX2678 (scFv, tested as cleared E. coli lysate; also called DLX2528_2548) scFv: EIVMTQSPSTLSASVGDRVTITCQASQSIGNWLAWYQQKPGKAPKLLIYQASNLASGVPSRFSGSGSGTDFTLTISSLQPDDFATYYCQNAGGATTIAFGQGTKLTVLGGGGGSGGGGSGGGGSGGGGSEVQLVESGGGLVQPGGSLRLSCTVSGFSLSSYAMSWVRQAPGKGLEWIGIIYDSASTYYASWAKGRFTISKDTSKNTLYLQMNSLRAEDTAVYFCARERQIFSGDMDGWGQGTTVTVSS
